The Human Domainome abundance scans (Beltran et al. 2025)
± gives the uncertainty stated by the source.

B1: POU domain, class 3, transcription factor 1, residues 247 to 324; numbered along this chain, Q03052 (parent)
chain: EDAPSSDDLEQFAKQFKQRRIKLGFTQADVGLALGTLYGNVFSQTTICRFEALQLSFKNMCKLKPLLNKWLEETDSSS

Variants of: B1
Assay: abundance fitness (aPCA) (normalised: wild type 0, dead -1); higher = more abundant; growth selection in yeast, the domain comes from the species named
Settings: Homo sapiens

Variant | abundance fitness
EDAPSSDDLEQFAKQFKQRRIKLGFTQADIGLALGTLYGNVFSQTTICRFEALQLSFKNMCKLKPLLNKWLEETDSSS | -0.055 ± 0.13
EDAPSSDDLEQFAKQFKQRRIKLGFTQADAGLALGTLYGNVFSQTTICRFEALQLSFKNMCKLKPLLNKWLEETDSSS | -0.411 ± 0.1
EDAPSSDDLEQFAKQFKQRRIKLGFTQADNGLALGTLYGNVFSQTTICRFEALQLSFKNMCKLKPLLNKWLEETDSSS | -0.281 ± 0.28
EDAPSSDDLEQFAKQFKQRRIKLGFTQADQGLALGTLYGNVFSQTTICRFEALQLSFKNMCKLKPLLNKWLEETDSSS | -0.759 ± 0.28
EDAPSSDDLEQFAKQFKQRRIKLGFTQADRGLALGTLYGNVFSQTTICRFEALQLSFKNMCKLKPLLNKWLEETDSSS | -0.975 ± 0.14
EDAPSSDDLEQFAKQFKQRRIKLGFTQADMGLALGTLYGNVFSQTTICRFEALQLSFKNMCKLKPLLNKWLEETDSSS | -0.65 ± 0.21
EDAPSSDDLEQFAKQFKQRRIKLGFTQADKGLALGTLYGNVFSQTTICRFEALQLSFKNMCKLKPLLNKWLEETDSSS | -0.425 ± 0.14
EDAPSSDDLEQFAKQFKQRRIKLGFTQADPGLALGTLYGNVFSQTTICRFEALQLSFKNMCKLKPLLNKWLEETDSSS | -0.787 ± 0.19
EDAPSSDDLEQFAKQFKQRRIKLGFTQADWGLALGTLYGNVFSQTTICRFEALQLSFKNMCKLKPLLNKWLEETDSSS | -0.386 ± 0.11
EDAPSSDDLEQFAKQFKQRRIKLGFTQADLGLALGTLYGNVFSQTTICRFEALQLSFKNMCKLKPLLNKWLEETDSSS | -0.175 ± 0.081
EDAPSSDDLEQFAKQFKQRRIKLGFTQADHGLALGTLYGNVFSQTTICRFEALQLSFKNMCKLKPLLNKWLEETDSSS | -0.303 ± 0.26
EDAPSSDDLEQFAKQFKQRRIKLGFTQADTGLALGTLYGNVFSQTTICRFEALQLSFKNMCKLKPLLNKWLEETDSSS | -0.807 ± 0.21
EDAPSSDDLEQFAKQFKQRRIKLGFTQADEGLALGTLYGNVFSQTTICRFEALQLSFKNMCKLKPLLNKWLEETDSSS | -0.601 ± 0.18
EDAPSSDDLEQFAKQFKQRRIKLGFTQADFGLALGTLYGNVFSQTTICRFEALQLSFKNMCKLKPLLNKWLEETDSSS | -0.485 ± 0.23
EDAPSSDDLEQFAKQFKQRRIKLGFTQADCGLALGTLYGNVFSQTTICRFEALQLSFKNMCKLKPLLNKWLEETDSSS | -0.319 ± 0.25
EDAPSSDDLEQFAKQFKQRRIKLGFTQADGGLALGTLYGNVFSQTTICRFEALQLSFKNMCKLKPLLNKWLEETDSSS | -0.957 ± 0.14
EDAPSSDDLEQFAKQFKQRRIKLGFTQAQVGLALGTLYGNVFSQTTICRFEALQLSFKNMCKLKPLLNKWLEETDSSS | 0.184 ± 0.09
EDAPSSDDLEQFAKQFKQRRIKLGFTQATVGLALGTLYGNVFSQTTICRFEALQLSFKNMCKLKPLLNKWLEETDSSS | -0.512 ± 0.14
EDAPSSDDLEQFAKQFKQRRIKLGFTQAFVGLALGTLYGNVFSQTTICRFEALQLSFKNMCKLKPLLNKWLEETDSSS | -0.835 ± 0.47
EDAPSSDDLEQFAKQFKQRRIKLGFTQARVGLALGTLYGNVFSQTTICRFEALQLSFKNMCKLKPLLNKWLEETDSSS | -0.316 ± 0.065
EDAPSSDDLEQFAKQFKQRRIKLGFTQAAVGLALGTLYGNVFSQTTICRFEALQLSFKNMCKLKPLLNKWLEETDSSS | -0.134 ± 0.07
EDAPSSDDLEQFAKQFKQRRIKLGFTQALVGLALGTLYGNVFSQTTICRFEALQLSFKNMCKLKPLLNKWLEETDSSS | -0.547 ± 0.11
EDAPSSDDLEQFAKQFKQRRIKLGFTQAVVGLALGTLYGNVFSQTTICRFEALQLSFKNMCKLKPLLNKWLEETDSSS | -0.679 ± 0.12
EDAPSSDDLEQFAKQFKQRRIKLGFTQANVGLALGTLYGNVFSQTTICRFEALQLSFKNMCKLKPLLNKWLEETDSSS | -0.729 ± 0.39

Variant | abundance fitness
EDAPSSDDLEQFAKQFKQRRIKLGFTQACVGLALGTLYGNVFSQTTICRFEALQLSFKNMCKLKPLLNKWLEETDSSS | -0.592 ± 0.19
EDAPSSDDLEQFAKQFKQRRIKLGFTQAHVGLALGTLYGNVFSQTTICRFEALQLSFKNMCKLKPLLNKWLEETDSSS | -0.213 ± 0.17
EDAPSSDDLEQFAKQFKQRRIKLGFTQAGVGLALGTLYGNVFSQTTICRFEALQLSFKNMCKLKPLLNKWLEETDSSS | -0.241 ± 0.058
EDAPSSDDLEQFAKQFKQRRIKLGFTQAKVGLALGTLYGNVFSQTTICRFEALQLSFKNMCKLKPLLNKWLEETDSSS | -0.057 ± 0.095
EDAPSSDDLEQFAKQFKQRRIKLGFTQAWVGLALGTLYGNVFSQTTICRFEALQLSFKNMCKLKPLLNKWLEETDSSS | -0.631 ± 0.12
EDAPSSDDLEQFAKQFKQRRIKLGFTQAMVGLALGTLYGNVFSQTTICRFEALQLSFKNMCKLKPLLNKWLEETDSSS | -0.654 ± 0.17
EDAPSSDDLEQFAKQFKQRRIKLGFTQAPVGLALGTLYGNVFSQTTICRFEALQLSFKNMCKLKPLLNKWLEETDSSS | -0.614 ± 0.16
EDAPSSDDLEQFAKQFKQRRIKLGFTQASVGLALGTLYGNVFSQTTICRFEALQLSFKNMCKLKPLLNKWLEETDSSS | -0.28 ± 0.087
EDAPSSDDLEQFAKQFKQRRIKLGFTQADVHLALGTLYGNVFSQTTICRFEALQLSFKNMCKLKPLLNKWLEETDSSS | -0.228 ± 0.4
EDAPSSDDLEQFAKQFKQRRIKLGFTQADVDLALGTLYGNVFSQTTICRFEALQLSFKNMCKLKPLLNKWLEETDSSS | -0.417 ± 0.19
EDAPSSDDLEQFAKQFKQRRIKLGFTQADVELALGTLYGNVFSQTTICRFEALQLSFKNMCKLKPLLNKWLEETDSSS | -0.18 ± 0.095
EDAPSSDDLEQFAKQFKQRRIKLGFTQADVALALGTLYGNVFSQTTICRFEALQLSFKNMCKLKPLLNKWLEETDSSS | 0.161 ± 0.062
EDAPSSDDLEQFAKQFKQRRIKLGFTQWDVGLALGTLYGNVFSQTTICRFEALQLSFKNMCKLKPLLNKWLEETDSSS | -0.371 ± 0.09
EDAPSSDDLEQFAKQFKQRRIKLGFTQKDVGLALGTLYGNVFSQTTICRFEALQLSFKNMCKLKPLLNKWLEETDSSS | -0.111 ± 0.11
EDAPSSDDLEQFAKQFKQRRIKLGFTQEDVGLALGTLYGNVFSQTTICRFEALQLSFKNMCKLKPLLNKWLEETDSSS | -0.008 ± 0.064
EDAPSSDDLEQFAKQFKQRRIKLGFTQVDVGLALGTLYGNVFSQTTICRFEALQLSFKNMCKLKPLLNKWLEETDSSS | -0.495 ± 0.093
EDAPSSDDLEQFAKQFKQRRIKLGFTQTDVGLALGTLYGNVFSQTTICRFEALQLSFKNMCKLKPLLNKWLEETDSSS | -0.037 ± 0.076
EDAPSSDDLEQFAKQFKQRRIKLGFTQPDVGLALGTLYGNVFSQTTICRFEALQLSFKNMCKLKPLLNKWLEETDSSS | -0.758 ± 0.21
EDAPSSDDLEQFAKQFKQRRIKLGFTQQDVGLALGTLYGNVFSQTTICRFEALQLSFKNMCKLKPLLNKWLEETDSSS | -0.225 ± 0.1
EDAPSSDDLEQFAKQFKQRRIKLGFTQDDVGLALGTLYGNVFSQTTICRFEALQLSFKNMCKLKPLLNKWLEETDSSS | -0.317 ± 0.26
EDAPSSDDLEQFAKQFKQRRIKLGFTQLDVGLALGTLYGNVFSQTTICRFEALQLSFKNMCKLKPLLNKWLEETDSSS | -0.405 ± 0.075
EDAPSSDDLEQFAKQFKQRRIKLGFTQSDVGLALGTLYGNVFSQTTICRFEALQLSFKNMCKLKPLLNKWLEETDSSS | -0.237 ± 0.077
EDAPSSDDLEQFAKQFKQRRIKLGFTQIDVGLALGTLYGNVFSQTTICRFEALQLSFKNMCKLKPLLNKWLEETDSSS | -0.608 ± 0.46
EDAPSSDDLEQFAKQFKQRRIKLGFTQCDVGLALGTLYGNVFSQTTICRFEALQLSFKNMCKLKPLLNKWLEETDSSS | -0.239 ± 0.12

Variant | abundance fitness
EDAPSSDDLEQFAKQFKQRRIKLGFTQNDVGLALGTLYGNVFSQTTICRFEALQLSFKNMCKLKPLLNKWLEETDSSS | -0.285 ± 0.35
EDAPSSDDLEQFAKQFKQRRIKLGFTQHDVGLALGTLYGNVFSQTTICRFEALQLSFKNMCKLKPLLNKWLEETDSSS | -0.24 ± 0.21
EDAPSSDDLEQFAKQFKQRRIKLGFTQMDVGLALGTLYGNVFSQTTICRFEALQLSFKNMCKLKPLLNKWLEETDSSS | -0.149 ± 0.083
EDAPSSDDLEQFAKQFKQRRIKLGFTQGDVGLALGTLYGNVFSQTTICRFEALQLSFKNMCKLKPLLNKWLEETDSSS | -0.083 ± 0.052
EDAPSSDDLEQFAKQFKQRRIKLGFTQYDVGLALGTLYGNVFSQTTICRFEALQLSFKNMCKLKPLLNKWLEETDSSS | -0.213 ± 0.16
EDAPSSDDLEQFAKQFKQRRIKLGFTQRDVGLALGTLYGNVFSQTTICRFEALQLSFKNMCKLKPLLNKWLEETDSSS | 0.069 ± 0.047
EDAPSSDDLEQFAKQFKQRRIKLGFTCADVGLALGTLYGNVFSQTTICRFEALQLSFKNMCKLKPLLNKWLEETDSSS | 0.069 ± 0.12
EDAPSSDDLEQFAKQFKQRRIKLGFTTADVGLALGTLYGNVFSQTTICRFEALQLSFKNMCKLKPLLNKWLEETDSSS | -0.062 ± 0.097
EDAPSSDDLEQFAKQFKQRRIKLGFTWADVGLALGTLYGNVFSQTTICRFEALQLSFKNMCKLKPLLNKWLEETDSSS | -0.209 ± 0.11
EDAPSSDDLEQFAKQFKQRRIKLGFTDADVGLALGTLYGNVFSQTTICRFEALQLSFKNMCKLKPLLNKWLEETDSSS | -0.836 ± 0.49
EDAPSSDDLEQFAKQFKQRRIKLGFTLADVGLALGTLYGNVFSQTTICRFEALQLSFKNMCKLKPLLNKWLEETDSSS | -0.356 ± 0.088
EDAPSSDDLEQFAKQFKQRRIKLGFTMADVGLALGTLYGNVFSQTTICRFEALQLSFKNMCKLKPLLNKWLEETDSSS | -0.288 ± 0.12
EDAPSSDDLEQFAKQFKQRRIKLGFTVADVGLALGTLYGNVFSQTTICRFEALQLSFKNMCKLKPLLNKWLEETDSSS | -0.171 ± 0.074
EDAPSSDDLEQFAKQFKQRRIKLGFTPADVGLALGTLYGNVFSQTTICRFEALQLSFKNMCKLKPLLNKWLEETDSSS | -0.053 ± 0.082
EDAPSSDDLEQFAKQFKQRRIKLGFTIADVGLALGTLYGNVFSQTTICRFEALQLSFKNMCKLKPLLNKWLEETDSSS | 0.045 ± 0.13
EDAPSSDDLEQFAKQFKQRRIKLGFTGADVGLALGTLYGNVFSQTTICRFEALQLSFKNMCKLKPLLNKWLEETDSSS | -0.595 ± 0.082
EDAPSSDDLEQFAKQFKQRRIKLGFTKADVGLALGTLYGNVFSQTTICRFEALQLSFKNMCKLKPLLNKWLEETDSSS | -0.257 ± 0.15
EDAPSSDDLEQFAKQFKQRRIKLGFTEADVGLALGTLYGNVFSQTTICRFEALQLSFKNMCKLKPLLNKWLEETDSSS | 0.03 ± 0.079
EDAPSSDDLEQFAKQFKQRRIKLGFTSADVGLALGTLYGNVFSQTTICRFEALQLSFKNMCKLKPLLNKWLEETDSSS | -0.369 ± 0.1
EDAPSSDDLEQFAKQFKQRRIKLGFTRADVGLALGTLYGNVFSQTTICRFEALQLSFKNMCKLKPLLNKWLEETDSSS | -0.49 ± 0.078
EDAPSSDDLEQFAKQFKQRRIKLGFTFADVGLALGTLYGNVFSQTTICRFEALQLSFKNMCKLKPLLNKWLEETDSSS | -0.325 ± 0.37
EDAPSSDDLEQFAKQFKQRRIKLGFTHADVGLALGTLYGNVFSQTTICRFEALQLSFKNMCKLKPLLNKWLEETDSSS | 0.217 ± 0.12
